For 3 substances, EC50 of AKT S473 phosphorylation in DU145 cells results are on record in patent US20250376500A1.

The target of this test is IGF-1 receptor (IGF1R) on DU145 cells and on immortalized human meibomian gland epithelial cells (human) (UniProt P08069). Put plainly: cell-based or functional assay.
Chain of IGF-1 receptor (IGF1R) on DU145 cells and on immortalized human meibomian gland epithelial cells (human) (P08069 31-1367): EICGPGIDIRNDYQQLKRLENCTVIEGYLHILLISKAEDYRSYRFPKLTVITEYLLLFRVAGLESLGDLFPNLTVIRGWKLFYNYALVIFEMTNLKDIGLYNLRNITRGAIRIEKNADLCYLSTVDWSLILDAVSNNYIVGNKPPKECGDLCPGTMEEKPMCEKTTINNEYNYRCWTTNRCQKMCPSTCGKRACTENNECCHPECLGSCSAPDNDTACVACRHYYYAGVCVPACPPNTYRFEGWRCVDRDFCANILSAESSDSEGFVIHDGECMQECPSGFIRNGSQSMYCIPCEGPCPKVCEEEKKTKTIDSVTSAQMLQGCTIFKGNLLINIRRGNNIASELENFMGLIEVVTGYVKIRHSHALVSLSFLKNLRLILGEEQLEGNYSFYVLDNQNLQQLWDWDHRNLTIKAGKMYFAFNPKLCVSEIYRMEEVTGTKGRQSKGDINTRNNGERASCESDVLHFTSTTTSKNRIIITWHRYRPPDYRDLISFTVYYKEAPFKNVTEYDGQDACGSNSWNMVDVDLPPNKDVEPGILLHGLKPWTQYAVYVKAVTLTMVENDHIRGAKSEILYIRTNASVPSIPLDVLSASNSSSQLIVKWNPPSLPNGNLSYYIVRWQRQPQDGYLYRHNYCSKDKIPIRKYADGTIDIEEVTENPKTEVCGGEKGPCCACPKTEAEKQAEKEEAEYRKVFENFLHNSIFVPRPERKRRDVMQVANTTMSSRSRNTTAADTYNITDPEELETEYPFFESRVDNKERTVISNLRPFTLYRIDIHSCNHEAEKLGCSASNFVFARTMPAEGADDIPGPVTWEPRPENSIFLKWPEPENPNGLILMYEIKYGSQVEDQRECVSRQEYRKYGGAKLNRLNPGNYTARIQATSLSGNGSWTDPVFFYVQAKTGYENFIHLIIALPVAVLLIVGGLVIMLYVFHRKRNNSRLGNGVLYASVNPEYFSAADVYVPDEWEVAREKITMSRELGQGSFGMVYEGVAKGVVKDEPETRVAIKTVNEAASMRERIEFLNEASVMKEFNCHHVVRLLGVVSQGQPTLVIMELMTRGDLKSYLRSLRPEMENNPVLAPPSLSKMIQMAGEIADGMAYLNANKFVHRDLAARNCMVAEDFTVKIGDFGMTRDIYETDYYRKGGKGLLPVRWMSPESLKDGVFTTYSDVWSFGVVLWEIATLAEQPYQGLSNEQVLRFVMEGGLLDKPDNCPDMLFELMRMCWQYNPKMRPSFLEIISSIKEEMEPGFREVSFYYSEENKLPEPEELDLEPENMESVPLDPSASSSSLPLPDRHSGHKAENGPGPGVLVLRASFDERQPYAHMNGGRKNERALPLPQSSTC
In turn, IGF-1 Des1-3 (SEQ ID NO: 8) (ligand) returned an EC50 of AKT S473 phosphorylation in DU145 cells of 2.3 nM.

“IGF-1 Ea (SEQ ID NO: 7) (from UniProt P17647 26-130) (ligand)”: the EC50 of AKT S473 phosphorylation in DU145 cells is 8.7 nM. “IGF-1 E3R (SEQ ID NO: 4) (from UniProt P05019 49-118) (ligand)” yielded an EC50 of AKT S473 phosphorylation in DU145 cells of 4.5 nM.
